Target: ankyrin-B (UniProt Q01484)
UniProt Q01484, sequence (Q01484 whole entry): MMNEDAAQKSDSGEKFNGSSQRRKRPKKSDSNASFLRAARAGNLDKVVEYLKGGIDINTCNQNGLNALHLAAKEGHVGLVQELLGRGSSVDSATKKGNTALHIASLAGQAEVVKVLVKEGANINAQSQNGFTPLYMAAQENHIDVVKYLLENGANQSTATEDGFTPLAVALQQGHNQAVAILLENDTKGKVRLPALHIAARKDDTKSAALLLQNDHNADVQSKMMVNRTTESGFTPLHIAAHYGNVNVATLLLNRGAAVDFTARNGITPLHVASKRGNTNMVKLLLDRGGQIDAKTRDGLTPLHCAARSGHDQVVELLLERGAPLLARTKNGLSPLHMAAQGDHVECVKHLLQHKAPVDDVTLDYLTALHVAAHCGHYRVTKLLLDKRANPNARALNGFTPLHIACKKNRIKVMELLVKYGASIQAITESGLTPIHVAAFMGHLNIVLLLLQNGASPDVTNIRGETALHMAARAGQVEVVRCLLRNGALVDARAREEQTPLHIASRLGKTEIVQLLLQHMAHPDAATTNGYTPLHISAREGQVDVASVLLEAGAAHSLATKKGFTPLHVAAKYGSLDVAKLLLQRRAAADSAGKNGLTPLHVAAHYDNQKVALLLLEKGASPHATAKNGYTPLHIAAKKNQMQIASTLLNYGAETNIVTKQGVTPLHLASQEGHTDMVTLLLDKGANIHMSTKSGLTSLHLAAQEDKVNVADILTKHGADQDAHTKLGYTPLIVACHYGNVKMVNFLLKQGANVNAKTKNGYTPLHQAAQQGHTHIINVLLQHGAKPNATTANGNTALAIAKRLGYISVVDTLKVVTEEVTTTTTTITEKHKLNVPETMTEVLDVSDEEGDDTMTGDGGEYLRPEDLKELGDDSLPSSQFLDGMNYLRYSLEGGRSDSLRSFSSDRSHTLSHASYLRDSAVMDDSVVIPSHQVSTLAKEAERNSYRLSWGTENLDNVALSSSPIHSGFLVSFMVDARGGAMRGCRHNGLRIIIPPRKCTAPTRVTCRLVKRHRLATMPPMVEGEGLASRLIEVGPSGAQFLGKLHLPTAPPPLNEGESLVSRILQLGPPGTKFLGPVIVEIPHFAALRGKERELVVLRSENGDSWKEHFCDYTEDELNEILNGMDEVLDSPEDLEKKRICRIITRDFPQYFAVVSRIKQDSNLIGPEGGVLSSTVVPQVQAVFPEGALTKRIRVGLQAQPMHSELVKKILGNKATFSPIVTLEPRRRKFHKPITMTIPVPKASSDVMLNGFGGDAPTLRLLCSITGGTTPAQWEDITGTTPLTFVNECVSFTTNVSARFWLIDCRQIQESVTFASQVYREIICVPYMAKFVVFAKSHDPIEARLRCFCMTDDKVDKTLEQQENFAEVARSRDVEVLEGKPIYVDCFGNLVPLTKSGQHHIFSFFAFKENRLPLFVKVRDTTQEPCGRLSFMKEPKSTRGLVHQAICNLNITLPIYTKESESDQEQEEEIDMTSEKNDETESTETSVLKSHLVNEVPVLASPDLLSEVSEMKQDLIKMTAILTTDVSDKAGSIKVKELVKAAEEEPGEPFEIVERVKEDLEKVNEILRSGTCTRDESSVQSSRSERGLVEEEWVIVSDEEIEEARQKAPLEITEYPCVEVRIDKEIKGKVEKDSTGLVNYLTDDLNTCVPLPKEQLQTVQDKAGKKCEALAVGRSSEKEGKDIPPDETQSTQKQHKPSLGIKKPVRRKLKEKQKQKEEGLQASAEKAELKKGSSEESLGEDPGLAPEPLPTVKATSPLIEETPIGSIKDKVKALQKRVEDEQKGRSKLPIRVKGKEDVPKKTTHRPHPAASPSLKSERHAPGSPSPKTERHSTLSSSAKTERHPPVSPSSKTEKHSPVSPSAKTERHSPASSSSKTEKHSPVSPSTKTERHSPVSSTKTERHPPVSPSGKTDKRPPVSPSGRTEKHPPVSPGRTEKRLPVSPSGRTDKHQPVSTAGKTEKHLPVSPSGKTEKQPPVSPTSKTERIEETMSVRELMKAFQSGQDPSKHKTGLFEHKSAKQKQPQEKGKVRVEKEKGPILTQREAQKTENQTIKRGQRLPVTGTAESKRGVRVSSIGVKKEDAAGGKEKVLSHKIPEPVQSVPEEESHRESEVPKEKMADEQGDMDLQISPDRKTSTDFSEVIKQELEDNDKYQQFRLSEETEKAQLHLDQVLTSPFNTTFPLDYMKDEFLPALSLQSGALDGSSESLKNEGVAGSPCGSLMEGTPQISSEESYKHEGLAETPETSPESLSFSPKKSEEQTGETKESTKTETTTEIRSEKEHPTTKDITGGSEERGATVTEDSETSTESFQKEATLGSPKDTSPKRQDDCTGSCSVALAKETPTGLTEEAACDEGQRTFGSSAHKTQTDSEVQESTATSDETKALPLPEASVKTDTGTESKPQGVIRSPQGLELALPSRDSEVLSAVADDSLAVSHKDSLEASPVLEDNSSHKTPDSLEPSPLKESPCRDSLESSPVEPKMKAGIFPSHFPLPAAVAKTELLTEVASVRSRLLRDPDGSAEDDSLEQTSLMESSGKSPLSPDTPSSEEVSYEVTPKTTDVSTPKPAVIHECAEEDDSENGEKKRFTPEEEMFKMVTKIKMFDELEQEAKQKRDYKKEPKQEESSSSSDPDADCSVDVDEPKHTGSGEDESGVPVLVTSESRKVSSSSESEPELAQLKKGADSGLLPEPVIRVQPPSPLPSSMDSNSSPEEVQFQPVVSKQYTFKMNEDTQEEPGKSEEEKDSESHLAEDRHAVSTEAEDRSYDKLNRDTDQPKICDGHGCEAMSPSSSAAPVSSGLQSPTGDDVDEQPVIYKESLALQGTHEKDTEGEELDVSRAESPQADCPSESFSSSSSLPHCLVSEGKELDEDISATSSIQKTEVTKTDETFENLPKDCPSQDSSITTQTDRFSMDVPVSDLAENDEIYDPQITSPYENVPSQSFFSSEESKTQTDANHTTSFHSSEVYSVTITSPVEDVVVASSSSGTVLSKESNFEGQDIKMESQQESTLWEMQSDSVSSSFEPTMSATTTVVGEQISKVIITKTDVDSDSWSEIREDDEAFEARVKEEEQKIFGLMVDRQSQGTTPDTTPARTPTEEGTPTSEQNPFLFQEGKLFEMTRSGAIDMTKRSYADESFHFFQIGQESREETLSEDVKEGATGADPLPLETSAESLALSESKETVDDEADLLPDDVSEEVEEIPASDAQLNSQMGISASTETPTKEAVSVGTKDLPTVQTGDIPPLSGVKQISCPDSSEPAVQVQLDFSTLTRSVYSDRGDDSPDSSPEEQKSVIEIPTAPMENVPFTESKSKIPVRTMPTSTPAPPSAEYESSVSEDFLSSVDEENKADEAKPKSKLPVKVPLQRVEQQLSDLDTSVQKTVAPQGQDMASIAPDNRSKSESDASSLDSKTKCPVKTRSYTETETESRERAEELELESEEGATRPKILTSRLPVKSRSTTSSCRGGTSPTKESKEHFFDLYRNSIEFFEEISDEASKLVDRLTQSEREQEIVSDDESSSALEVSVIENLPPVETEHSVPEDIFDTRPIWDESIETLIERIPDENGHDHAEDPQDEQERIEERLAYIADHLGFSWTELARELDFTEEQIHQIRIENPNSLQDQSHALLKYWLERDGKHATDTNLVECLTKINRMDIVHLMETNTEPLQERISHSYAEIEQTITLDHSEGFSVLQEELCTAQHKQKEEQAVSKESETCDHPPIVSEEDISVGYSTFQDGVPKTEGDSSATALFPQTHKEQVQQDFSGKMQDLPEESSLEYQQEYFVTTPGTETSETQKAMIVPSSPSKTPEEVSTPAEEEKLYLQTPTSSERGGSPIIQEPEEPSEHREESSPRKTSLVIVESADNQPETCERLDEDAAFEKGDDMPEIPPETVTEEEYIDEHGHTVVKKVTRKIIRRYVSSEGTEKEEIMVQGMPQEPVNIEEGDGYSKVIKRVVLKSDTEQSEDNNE

Kd: 200 nM
Substance: IP3 receptor (from UniProt P29994 1-2750)
